Experimental data from US20240288416.

Experiments:
substrate 1 (S1) = biological target: T1, substrate 1 (S1)
T1 chain: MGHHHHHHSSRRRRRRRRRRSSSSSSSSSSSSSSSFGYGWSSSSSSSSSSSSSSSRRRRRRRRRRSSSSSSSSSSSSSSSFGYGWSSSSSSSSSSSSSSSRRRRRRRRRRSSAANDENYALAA

[1] = biological target: green fluorescent protein (GFP) carrying an ssrA tag at the C-terminus

B1: Valosin-containing protein-like ATPase of Thermoplasma acidophilum (protein)
chain: MESNNGIILRVAEANSTDPGMSRVRLDESSRRLLDAEIGDVVEIEKVRKTVGRVYRARPEDENKGIVRIDSVMRNNCGASIGDKVKVRKVRTEIAKKVTLAPIIRKDQRLKFGEGIEEYVQRALIRRPMLEQDNISVPGLTLAGQTGLLFKVVKTLPSKVPVEIGEETKIEIREEPASEVLEEVSRISYEDIGGLSEQLGKIREMIELPLKHPELFERLGITPPKGVILYGPPGTGKTLIARAVANESGANFLSINGPEIMSKYYGQSEQKLREIFSKAEETAPSIIFIDEIDSIAPKREEVQGEVERRVVAQLLTLMDGMKERGHVIVIGATNRIDAIDPALRRPGRFDREIEIGVPDRNGRKEILMIHTRNMPLGMSEEEKNKFLEEMADYTYGFVGADLAALVRESAMNALRRYLPEIDLDKPIPTEILEKMVVTEDDFKNALKSIEPSSLREVMVEVPNVHWDDIGGLEDVKREIKETVELPLLKPDVFKRLGIRPSKGFLLYGPPGVGKTLLAKAVATESNANFISIKGPEVLSKWVGESEKAIREIFKKAKQVAPAIVFLDEIDSIAPRRGTTSDSGVTERIVNQLLTSLDGIEVMNGVVVIGATNRPDIMDPALLRAGRFDKLIYIPPPDKEARLSILKVHTKNMPLAPDVDLNDIAQRTEGYVGADLENLCREAGMNAYRENPDATSVSQKNFLDALKTIRPSVDEEVIKFYRTLSETMSKSVSERRKQLQDQGLYL
Ires % during VAT-assisted translocation through the inactive proteasome-nanopore (VAT 20.0 µM, ATP 2.0 mM) (substrate 1 (S1)): Ires %=83.81±0.11
average dwell time of VAT-assisted translocation events (inactive proteasome-nanopore, ATP 2.0 mM) (substrate 1 (S1)): average dwell time is 5.8±3.9 ms
average dwell time of GFP blockades at 6.0 mM ATP [1]: decreased 10-fold to 2.4±1.7 ms
average dwell time of current blockades (inactive proteasome-nanopore, VAT, ATP 2.0 mM) [1]: average dwell time is 22.1±20.2 ms
